Measured values taken from patent US20110189093A1, “PROSTATE SPECIFIC MEMBRANE ANTIGEN ANTIBODIES AND ANTIGEN BINDING FRAGMENTS” (PROSCAN RX PHARMA, priority 2008, published 2011).

B1: PSf42.4: anti-PSMA monoclonal antibody; light chain variable SEQ ID NO:51, heavy chain variable SEQ ID NO:52 (antibody, V domains shown)
VH: EVKLQQSGAELVKPGASVKLSCTASGFSIRDTYMHWVRQRPEQGLEWITGIDPENGNSKYAPRFQDKATIIADTSSNTVHLQLDTLTSEDTAVYYCTRELAYWGQGTTVTVS
VL: DILMTQSPLTLSVIIGQPASFSCKSSHSLLHRDGRTYLNWLLQRPGQSPQRLIYLVSKLDSGVPDRFTGSGSGTDFTLKISRVEAEDLGVYYCWQGTHFPRTFGGGTKLEIKRA
B2: PSf42.1: anti-PSMA monoclonal antibody; light chain variable SEQ ID NO:45, heavy chain variable SEQ ID NO:46 (antibody, V domains shown)
VH: EVQLEESGAEFVRPGAAVKLSCTVSGLNIKDSYLHWVKQRPEQGLEWIGGIDPANGDVEYDPKFQGKAAITADTSSNTAYLRLSSLTSEDTAVYYCAPFPYWGAGTTVTVS
VL: B1 VL
B3: PSf42.3: anti-PSMA monoclonal antibody; light chain variable SEQ ID NO:49, heavy chain variable SEQ ID NO:50 (antibody, V domains shown)
VH: EVQLQQSGAELAKPGASVKLSCTGSGFNIKDTYMHWVKQRPEQGLEWIGGIDPETGNTKFDPRFQDKATITSDTSSNTVLLQLSSLTSEDTAVYYCANLGRPFAHWGQGTTVTVS
VL: HSADPVSISCKSSQSLLHRDGKTYLNWVFQRPGQSPQRLIYLVSLVDSGVPDRFTGSGSGTDFTLKINRVEAEDLGVYYCWQGTHFPRTFGGGTKLEIKRA

Tested on: 22 different tumor types
Assay: Immunohistochemistry on tissue microarrays of tumor types
Settings: Astrocytoma
Protocol: (§1) Tissue and tumor specificity of mAbs: to compare the tissue and tumor specificity of monoclonal antibodies of the present invention, tissue microarrays of 30 different normal tissues (Biochain) and 22 different tumor types (Dako) including prostate cancer was used in order to characterize their recognition specificity. The immunohistochemistry was performed on antigen retrieved, formalin fixed, paraffin embedded material. Anti-PSMA mAbs J591 (ATCC HB-12126) and 7E11 (ATCC HB-10494) were used as references. Formalin fixed paraffin embedded […] sections were subjected to antigen retrieval in basic antigen retrieval solution (BD Pharmingen pH 9.5) in a microwavable pressure cooker for 10 min, cooled and equilibrated to 0.01M phosphate buffered saline (PBS) pH 7.4. Staining was carried out at room temperature in a humidified chamber. Endogenous peroxidases were inactivated with a 1% solution of H2O2 for 20 min, blocked with 5% normal goat serum (NGS) for 30 min and incubated with primary monoclonal antibodies (mAbs) diluted in PBS; 2% NGS overnight. Antibody binding to tissue sections was detected by the sequential addition of the following reagents followed by washing in PBS: goat anti-mouse IgG (H+L) (ICN) secondary antibody diluted 1:100 in PBS; 2% NGS for 1 hr, a complex of a bi-specific mAb mouse anti-peroxidase and horse radish peroxidase for 1 hr, and 3,3-diaminobenzidene tetrahydrochloride (DAB) at 0.6 mg/ml in PBS; 2% NGS; 0.01% H2O2 as chromogen. The primary antibodies were purified mAbs used at concentrations optimized in dilution experiments. […] Mouse IgG mAb was used at a concentration of 0.2 μg/ml and served as a negative control for the primary antibodies. Tissue samples included organ confined and metastatic prostate cancer, HGPIN and normal prostate tissues drawn from radical prostatectomies, transurethral resections and autopsy material.

Molecule	No. of positive cases/total no. of cases studied
B1	0/2
B2	0/2
B3	0/2

Same assay, conditions: Breast carcinoma

Molecule	No. of positive cases/total no. of cases studied
B1	0/2
B2	0/2
B3	0/2

Same assay, conditions: Carcinoid

Molecule	No. of positive cases/total no. of cases studied
B1	0/3
B2	0/3
B3	0/3

Same assay, conditions: Colonic adenocarcinoma

Molecule	No. of positive cases/total no. of cases studied
B1	0/2
B2	0/2
B3	0/2

Same assay, conditions: Epithelioid sarcoma

Molecule	No. of positive cases/total no. of cases studied
B1	0/1
B2	0/1
B3	0/1

Same assay, conditions: Ewing's sarcoma

Molecule	No. of positive cases/total no. of cases studied
B1	0/1
B2	0/1
B3	0/1

Same assay, conditions: Gastric carcinoma

Molecule	No. of positive cases/total no. of cases studied
B1	0/2
B2	0/2
B3	0/2

Same assay, conditions: Hepatocellular carcinoma

Molecule	No. of positive cases/total no. of cases studied
B1	0/2
B2	0/2
B3	0/2

Same assay, conditions: Hodgkin's lymphoma

Molecule	No. of positive cases/total no. of cases studied
B1	5/13
B2	1/13
B3	2/13

Same assay, conditions: Leiomyoma

Molecule	No. of positive cases/total no. of cases studied
B1	0/2
B2	0/2
B3	0/2

Same assay, conditions: Lung adeno carcinoma

Molecule	No. of positive cases/total no. of cases studied
B1	0/2
B2	0/2
B3	0/2

Same assay, conditions: Lymphoma

Molecule	No. of positive cases/total no. of cases studied
B1	0/3
B2	0/3
B3	0/3

Same assay, conditions: Malignant fibrous histiocytoma

Molecule	No. of positive cases/total no. of cases studied
B1	0/1
B2	0/1
B3	0/1

Same assay, conditions: Melanoma

Molecule	No. of positive cases/total no. of cases studied
B1	2/4
B2	0/3
B3	2/4

Same assay, conditions: Mesothelioma

Molecule	No. of positive cases/total no. of cases studied
B1	0/2
B2	0/2
B3	0/2

Same assay, conditions: Ovarian carcinoma

Molecule	No. of positive cases/total no. of cases studied
B1	0/2
B2	0/2
B3	0/2

Same assay, conditions: Pancreatic carcinoma

Molecule	No. of positive cases/total no. of cases studied
B1	0/2
B2	0/2
B3	0/2

Same assay, conditions: Prostatic carcinoma

Molecule	No. of positive cases/total no. of cases studied
B1	1/1
B2	1/1
B3	1/1

Same assay, conditions: Renal cell carcinoma

Molecule	No. of positive cases/total no. of cases studied
B1	0/2
B2	0/2
B3	0/2

Same assay, conditions: Rhabdosarcoma

Molecule	No. of positive cases/total no. of cases studied
B1	2/2
B2	0/2
B3	2/2

Same assay, conditions: Thyroid carcinoma

Molecule	No. of positive cases/total no. of cases studied
B1	0/2
B2	0/2
B3	0/2

Same assay, conditions: Undifferentiated carcinoma

Molecule	No. of positive cases/total no. of cases studied
B1	0/4
B2	0/4
B3	0/4

Tested on: 30 different normal tissues
Assay: Immunohistochemistry on tissue microarrays of normal tissues
Settings: Adipose
Protocol: as §1

Molecule	No. of positive cases/total no. of cases studied
B1	0/2
B2	0/2
B3	0/2

Same assay, conditions: Bladder

Molecule	No. of positive cases/total no. of cases studied
B1	0/2
B2	0/2
B3	0/2

Same assay, conditions: Brain

Molecule	No. of positive cases/total no. of cases studied
B1	0/2
B2	0/2
B3	0/2

Same assay, conditions: Breast

Molecule	No. of positive cases/total no. of cases studied
B1	0/2
B2	0/2
B3	0/2

Same assay, conditions: Cerebullum

Molecule	No. of positive cases/total no. of cases studied
B1	0/2
B2	0/2
B3	0/2

Same assay, conditions: Cervix

Molecule	No. of positive cases/total no. of cases studied
B1	0/2
B2	0/2
B3	0/2

Same assay, conditions: Colon

Molecule	No. of positive cases/total no. of cases studied
B1	0/2
B2	0/2
B3	0/2

Same assay, conditions: Diaphragm

Molecule	No. of positive cases/total no. of cases studied
B1	2/2
B2	2/2
B3	2/2

Same assay, conditions: Duodenum

Molecule	No. of positive cases/total no. of cases studied
B1	0/2
B2	0/2
B3	2/2

Same assay, conditions: Esophagus

Molecule	No. of positive cases/total no. of cases studied
B1	0/2
B2	0/2
B3	2/2

Same assay, conditions: Gallbladder

Molecule	No. of positive cases/total no. of cases studied
B1	0/2
B2	0/2
B3	0/2

Same assay, conditions: Heart

Molecule	No. of positive cases/total no. of cases studied
B1	0/2
B2	0/2
B3	0/2

Same assay, conditions: Ileum

Molecule	No. of positive cases/total no. of cases studied
B1	2/2
B2	0/2
B3	2/2

Same assay, conditions: Jejenum

Molecule	No. of positive cases/total no. of cases studied
B1	2/2
B2	0/2
B3	2/2

Same assay, conditions: Kidney

Molecule	No. of positive cases/total no. of cases studied
B1	1/2
B2	0/2
B3	2/2

Same assay, conditions: Liver

Molecule	No. of positive cases/total no. of cases studied
B1	0/2
B2	0/2
B3	0/2

Same assay, conditions: Lung

Molecule	No. of positive cases/total no. of cases studied
B1	0/2
B2	0/2
B3	0/2

Same assay, conditions: Ovary

Molecule	No. of positive cases/total no. of cases studied
B1	0/2
B2	0/2
B3	0/2

Same assay, conditions: Pancreas

Molecule	No. of positive cases/total no. of cases studied
B1	0/2
B2	0/2
B3	0/2

Same assay, conditions: Placenta

Molecule	No. of positive cases/total no. of cases studied
B1	1/4
B2	0/4
B3	1/4

Same assay, conditions: Rectum

Molecule	No. of positive cases/total no. of cases studied
B1	0/2
B2	0/2
B3	0/2

Same assay, conditions: Skeletal muscle

Molecule	No. of positive cases/total no. of cases studied
B1	2/2
B2	2/2
B3	2/2

Same assay, conditions: Skin

Molecule	No. of positive cases/total no. of cases studied
B1	0/2
B2	0/2
B3	0/2

Same assay, conditions: Spleen

Molecule	No. of positive cases/total no. of cases studied
B1	0/2
B2	0/2
B3	0/2

Same assay, conditions: Stomach

Molecule	No. of positive cases/total no. of cases studied
B1	0/2
B2	0/2
B3	0/2

Same assay, conditions: Testis

Molecule	No. of positive cases/total no. of cases studied
B1	0/2
B2	0/2
B3	0/2

Same assay, conditions: Thymus

Molecule	No. of positive cases/total no. of cases studied
B1	0/2
B2	0/2
B3	0/2

Same assay, conditions: Thyroid

Molecule	No. of positive cases/total no. of cases studied
B1	0/2
B2	0/2
B3	0/2

Same assay, conditions: Tonsil

Molecule	No. of positive cases/total no. of cases studied
B1	0/2
B2	0/2
B3	0/2

Same assay, conditions: Uterus

Molecule	No. of positive cases/total no. of cases studied
B1	0/2
B2	0/2
B3	0/2
